The results in this text go back to patent publication US20020155121A1.

Assay [1] has as its target CCR5 expressed on cells (L1.2/R5, Cf2Th-R5, U373/CD4/CCR5) (UniProt P51681). The assay is described as follows: flow cytometry on L1.2/R5 cells. A general note: A flow cytometer gives signals particle by particle.
Assay [2] shares this target. The assay is described as follows: cell-based or functional assay.
In assay [3] the target is CXCR4 expressed on cells (L1.2/X4, U373/CD4/CXCR4) (UniProt P61073). The assay is described as follows: cell-based or functional assay.
Sequence of UniProt P61073 (P61073 whole entry): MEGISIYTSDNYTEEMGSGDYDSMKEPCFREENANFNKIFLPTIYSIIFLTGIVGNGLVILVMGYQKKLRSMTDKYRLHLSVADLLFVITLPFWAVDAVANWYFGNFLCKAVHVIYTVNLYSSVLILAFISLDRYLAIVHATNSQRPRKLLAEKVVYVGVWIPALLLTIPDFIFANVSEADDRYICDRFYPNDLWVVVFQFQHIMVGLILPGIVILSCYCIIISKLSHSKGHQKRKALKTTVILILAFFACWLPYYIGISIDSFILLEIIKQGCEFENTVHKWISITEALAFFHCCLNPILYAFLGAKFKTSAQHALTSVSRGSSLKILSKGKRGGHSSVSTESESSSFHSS

Bounds are passed on as bounds.

Sequence of UniProt P51681 (P51681 whole entry): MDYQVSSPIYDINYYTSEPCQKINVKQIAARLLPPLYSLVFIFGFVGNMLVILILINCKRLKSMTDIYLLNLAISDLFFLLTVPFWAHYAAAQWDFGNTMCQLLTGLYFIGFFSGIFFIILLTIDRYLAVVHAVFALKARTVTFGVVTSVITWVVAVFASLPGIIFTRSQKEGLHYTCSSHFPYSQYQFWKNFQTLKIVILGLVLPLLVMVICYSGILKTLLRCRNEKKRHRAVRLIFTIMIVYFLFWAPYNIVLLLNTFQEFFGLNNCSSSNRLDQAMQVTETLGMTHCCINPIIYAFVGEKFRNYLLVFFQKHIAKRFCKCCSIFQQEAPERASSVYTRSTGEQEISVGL

As for “full-length single chain (FLSC) gp120-CD4 chimeric polypeptide (other; other documents disagree on this pair)”, the concentration of maximal binding in assay [1] stood at 10 µg/mL.
For “gp120-CD4-IgG1 chimeric polypeptide (Fc fusion)”, in assay [2], the ID90 (µg/mL), neutralization of 89.6 on U373/CD4/CCR5 was 3.56 µg/mL; the ID90 (µg/mL), neutralization of ADA on U373/CD4/CCR5 is 4.58 µg/mL; the ID90 (µg/mL), neutralization of BaL on U373/CD4/CCR5 is 3.1 µg/mL. In assay [3], this substance came in with an ID90 (µg/mL), neutralization of 89.6 on U373/CD4/CXCR4 greater than 10 µg/mL; an ID90 (µg/mL), neutralization of 2005 on U373/CD4/CXCR4 greater than 10 µg/mL; an ID90 (µg/mL), neutralization of 2044 on U373/CD4/CXCR4 greater than 10 µg/mL.
The substance “truncated single chain (TcSC) gp120-CD4 chimeric polypeptide (other; other documents disagree on this pair)” returned a fold higher concentration than FLSC to approach saturation binding in assay [1] of 10 fold.
